Experimental data as given in patent US20040121386.

Experiments:
[1] = target: unactive JNK1 (Upstate, Inc.)
[2] = target: unactive p38

B1: His-tagged MKK7γ1 (protein)
chain: AASSLEQKLSRLEAKLKQENREARRRIDLNLDISPQRPRPIIVITLSPAPAPSQRAALQLPLANDGGSRSPSSESSPQHPTPPARPRHMLGLPSTLFTPRSMESIEIDQKLQEIMKQTGYPTIGGQRYQAEINDLENLGEMGSGTCGQVWKMRFRKTGHVIAVKQMRRSGNKEENKRILMDLDVVLKSHDCPYIVQCFGTFITNTDVFIAMELMGTCAEKLKKRMQGPIPERILGKMTVAIVKALYYLKEKHGVIHRDVKPSNILLDERGQIKLCDFGISGRLVDSKAKTRSAGCAAYMAPERIDPPDPTKPDYDIRADVWSLGISLVELATGQFPYKNCKTDFEVLTKVLQEEPPLLPGHMGFSGDFQSFVKDCLTKDHRKRPKYNKLLEHSFIKRYETLEVDVASWFKDVMAKTESPRTSGVLSQPHLPFFR
phosphorylation in a two-step cascade kinase assay (γ-32P-ATP, SDS/PAGE, autoradiography) [1]: in turn was able to phosphorylate JNK1 | phosphorylation in a two-step cascade kinase assay (γ-32P-ATP, SDS/PAGE, autoradiography) [2]: MKK7γ1 was unable to phosphorylate p38
